Reference: patent publication US20200173986A1

Key:
[1] = target: endogenous SNAP25 in total cell lysate; assay: sandwich ELISA with total cell lysate, positive control
[2] = target: endogenous SNAP25 in total cell lysate; assay: as above; remark: listed apart in the source
[3] = target: endogenous SNAP25 in total cell lysate; assay: as above; remark: listed apart in the source
[4] = target: endogenous SNAP25 in total cell lysate; assay: sandwich ELISA with total cell lysate, negative control
[5] = target: endogenous SNAP25 in total cell lysate; assay: as above; remark: listed apart in the source
[6] = target: endogenous SNAP25 in total cell lysate; assay: as above; remark: listed apart in the source

Chain of endogenous SNAP25 in total cell lysate (P60879 whole entry): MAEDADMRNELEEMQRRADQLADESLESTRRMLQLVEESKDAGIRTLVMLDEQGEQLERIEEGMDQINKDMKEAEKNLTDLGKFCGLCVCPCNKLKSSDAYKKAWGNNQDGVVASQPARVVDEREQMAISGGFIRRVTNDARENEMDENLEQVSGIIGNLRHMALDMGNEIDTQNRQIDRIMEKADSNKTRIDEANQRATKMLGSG

Row | Substance | ELISA signal (A450) [1] | ELISA signal (A450) [2] | ELISA signal (A450) [3] | ELISA signal (A450) [4] | ELISA signal (A450) [5] | ELISA signal (A450) [6]
1 | PC | 3.49 | 2.5 | 2.77 | – | – | –
2 | NC | – | – | – | 0.125 | 0.27 | 0.213
